Reference: patent US20230357414A1 (SYNTHEKINE, published 2023)

B1: VHH6 (VHH)
VHH: QVQLQESGGGLVQAGGSLRLSCQASGYTYGLFCMGWFRQVSGKKREGVAVVDSPGGRHVADSLKGRFTISKDNANNILYLDMTNLKSEDTATYYCAADPEKYCFLFSDAGYQYWGQGTQVTVSS
notes: Camel VHH, tested as a periplasmic extract of a phage clone; also called anti-human IL12Rb2 VHH6; hIL12Rb2 VHH; not shown: HA/His tag encoded by the pMECS phagemid
B2: VHH3 (VHH)
VHH: QVQLQESGGGSVQAGGSLRLSCTASGLTFDDVEMAWYRQGPGDDYDLVSSINTDSRVYYVDSVKDRFTISRDNAKNTLYLQMNNLKPEDTAVYYCAADPWGGDLRGYPNYWGQGTQVTVSS
notes: Camel VHH, tested as a periplasmic extract of a phage clone; also called anti-human IL12Rb2 VHH3; hIL12Rb2 VHH; not shown: HA/His tag encoded by the pMECS phagemid
B3: VHH2 (VHH)
VHH: QVQLQESGGGSVQAGGSLRLSCAASGFTISRYCMGWLRQAPGKQREGVAIIERDGRTGYADSVKGRFTISKDNAKNTLYLQMNSLKPEDTAMYYCGAIEGSCRPDFGYRGQGTQVTVSS
notes: Camel VHH, tested as a periplasmic extract of a phage clone; also called anti-human IL12Rb2 VHH2; hIL12Rb2 VHH; not shown: HA/His tag encoded by the pMECS phagemid
B4: VHH13 (VHH)
VHH: QVQLQESGGGSVQAGGSLRLSCAASGFTISKYCMGWLRQAPGKQREGVAIIERDGRTGYADSVKGRFTISKDNAKNTLYLQMNSLKPEDTAMYYCGAIEGSCRPDFGYRGQGTQVTVSS
notes: Camel VHH, tested as a periplasmic extract of a phage clone; also called anti-human IL12Rb2 VHH13; hIL12Rb2 VHH; not shown: HA/His tag encoded by the pMECS phagemid
B5: VHH1 (VHH)
VHH: QVQLQESGGGSVQAGGSLRLSCAASGFTVTRYCMGWLRQAPGKQREGVAIIERDGRTGYADSVKGRFTISKDNAKNTLYLQMNSLKPEDTAMYYCGAIEGSCRPDFGYRGQGTQVTVSS
notes: Camel VHH, tested as a periplasmic extract of a phage clone; also called anti-human IL12Rb2 VHH1; hIL12Rb2 VHH; not shown: HA/His tag encoded by the pMECS phagemid
B6: VHH11 (VHH)
VHH: QVQLQESGGGSVQAGGSLRLSCAASGFTVSRYCMGWLRQAPGKQREGVAIIERDGRTGYADSVKGRFTISKDDAKNTLYLQMNSLKPEDTAMYYCGAIEGSCRPDFGYRGQGTQVTVSS
notes: Camel VHH, tested as a periplasmic extract of a phage clone; also called anti-human IL12Rb2 VHH11; hIL12Rb2 VHH; not shown: HA/His tag encoded by the pMECS phagemid
B7: VHH10 (VHH)
VHH: QVQLQESGGGSVQAGGSLRLSCAASGFTVTRYCMGWLRQAPGKQREGVAIIERDGRTGYADSVKGRFTISKDNAKNTLYLQMNSLKPEDTAMYYCGAIEGSCRPDFGYRGQGTQVTVSS
notes: Camel VHH, tested as a periplasmic extract of a phage clone; also called anti-human IL12Rb2 VHH10; hIL12Rb2 VHH; not shown: HA/His tag encoded by the pMECS phagemid
B8: VHH8 (VHH)
VHH: QVQLQESGGGSVQAGGSLRLSCAASGFTVSRYCMGWLRQAPGKQREGVAIIEREGRTGYADSVKGRFTISKDNAKNTLYLQMNSLKPEDTAMYYCGAIEGSCRPDFGYRGQGTQVTVSS
notes: Camel VHH, tested as a periplasmic extract of a phage clone; also called anti-human IL12Rb2 VHH8; hIL12Rb2 VHH; not shown: HA/His tag encoded by the pMECS phagemid
B9: VHH17 (VHH)
VHH: QVQLQESGGGSVQAGGSLRLSCAASGLTISRYCMGWLRQAPGKQREGVAIIERDGRTGYADSVKGRFTISKDNAKNTLYLQMNSLKPEDTAMYYCGAIEGSCRPDFGYRGQGTQVTVSS
notes: Camel VHH, tested as a periplasmic extract of a phage clone; also called anti-human IL12Rb2 VHH17; hIL12Rb2 VHH; not shown: HA/His tag encoded by the pMECS phagemid
B10: VHH4 (VHH)
VHH: QVQLQESGGGSVQAGGSLRLSCVASGFTISRYCMGWLRQAPGKQREGVAIIERDGRTGYADSVKGRFTISKDNAKNTLYLQMNSLKPGDTAMYYCGAIEGSCRPDFGYRGQGTQVTVSS
notes: Camel VHH, tested as a periplasmic extract of a phage clone; also called anti-human IL12Rb2 VHH4; hIL12Rb2 VHH; not shown: HA/His tag encoded by the pMECS phagemid
B11: VHH9 (VHH)
VHH: QVQLQESGGGSVQAGGSLRLSCAASGFTISRYCMGWLRQAPGKQREGVAIIERDGRTGYADSVKGRFTISKDNAKNTLYLQMNSLKPEDTAMYFCGAIEGSCRPDFGYRGQGTQVTVSS
notes: Camel VHH, tested as a periplasmic extract of a phage clone; also called anti-human IL12Rb2 VHH9; hIL12Rb2 VHH; not shown: HA/His tag encoded by the pMECS phagemid
B12: VHH7 (VHH)
VHH: QVQLQESGGGSVQAGGSLRLSCAASGVTYSRYCMGWFRQAPGLERERVATIYSRGIITYYTDSVKGRFTISQDSAKKTVYLQMNSLKPEDTAMYYCAATRETYGGSGDCDYESVYNYWAQGTQVTVSS
notes: Camel VHH, tested as a periplasmic extract of a phage clone; also called anti-human IL12Rb2 VHH7; hIL12Rb2 VHH; not shown: HA/His tag encoded by the pMECS phagemid

molecular target: T1, extracellular domain of human IL12Rb2 (amino acids 24-622 of hIL12Rb2, UniProt Q99665) (human, UniProt Q99665 24-622); assay: periplasmic extract ELISA on antigen-coated plate; positive if A450 at least threefold over PBS-coated control
T1 construct: also called hIL12Rb2 ECD; hIL12Rb2-ECD
T1 sequence: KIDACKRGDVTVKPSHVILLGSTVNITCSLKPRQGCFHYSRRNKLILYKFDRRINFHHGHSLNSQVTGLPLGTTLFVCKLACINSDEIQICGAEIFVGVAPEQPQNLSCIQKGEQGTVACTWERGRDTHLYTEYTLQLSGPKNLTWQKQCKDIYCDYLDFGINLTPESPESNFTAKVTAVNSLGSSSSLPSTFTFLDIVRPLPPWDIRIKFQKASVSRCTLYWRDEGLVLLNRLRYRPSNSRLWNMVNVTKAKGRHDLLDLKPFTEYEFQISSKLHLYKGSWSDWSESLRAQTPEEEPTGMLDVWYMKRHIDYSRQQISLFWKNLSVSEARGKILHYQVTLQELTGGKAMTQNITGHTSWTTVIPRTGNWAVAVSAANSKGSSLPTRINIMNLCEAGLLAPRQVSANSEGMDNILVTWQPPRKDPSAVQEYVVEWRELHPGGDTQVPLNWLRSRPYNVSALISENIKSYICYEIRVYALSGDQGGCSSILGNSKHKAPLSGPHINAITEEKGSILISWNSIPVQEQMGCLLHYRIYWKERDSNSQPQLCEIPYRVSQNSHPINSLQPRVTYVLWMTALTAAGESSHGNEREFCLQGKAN
Experimental: Upon completion of the biopanning of Example 3, three 96-well plates of individual phage clones were isolated in order to perform periplasmic extract ELISA (PE-ELISA) on IL12Rb2 coated plates to identify positive VHH binders that selectively bound IL12Rb2. A 96-well plate was coated with IL12Rb2 and PBS under the same conditions. Next, wells were blocked at 37° C. for 1 h. Then, 100 μl of extracted antibodies was added to each well and incubated for 1 h. Subsequently, 100 μl of anti-tag polyclonal antibody conjugated to HRP was added to each well and incubated at 37° C. for 1 h. Plates were developed with TMB substrate. The reaction was stopped by the addition of H2SO4. Absorbance at 450 nm was read on a microtiter plate reader. Antibodies with absorbance of the antigen-coated well at least threefold greater than PBS-coated control are VHHs that specifically bind to IL 12Rb2. Positive clones were sequenced, and sequences analyzed to identify unique clonotypes

Row | Binder | binding result
1 | B1 | binds
2 | B2 | binds
3 | B3 | binds
4 | B4 | binds
5 | B5 | binds
6 | B6 | binds
7 | B7 | binds
8 | B8 | binds
9 | B9 | binds
10 | B10 | binds
11 | B11 | binds
12 | B12 | binds
